Data from the nanobody polyreactivity screen of Harvey et al. (2022).

Assay: yeast display, Sf9 membrane polyspecificity reagent, FACS + sequencing; frameworks hold sequencing errors
Outline: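 Sorting gates, low and high (top ~1%), were placed on anti-HA fluorescence to track expression and on streptavidin fluorescence to track reagent binding. A clone's polyreactivity label is taken from the gate it came out of. The reagent was 10% biotinylated, detergent-solubilized Sf9 membrane, applied for 1 hour at 4 °C to galactose-induced yeast display cells.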

Sequence	polyreactivity (PSR sort gate)
QVQLVESGGGLVQAGGSLRLSCAASGGIVDSNAMGWYRQAPGKERELVAAISDSGGSTYYADSVKGRFTISRDNAKNTVYLQMNSLKPEDTAVYYCAADSDYHFVNYRFGMDYWGQGTQVTVSS	low polyreactivity
QVQLVESGGGLVQAGGSLRLSCAASGGIYYSNAMGWYRQAPGKERELVAAISRDGTITYYADSEKGRFTSSRDNAKNTVYLQMNSLKPEDTAVYSCASDPSIPSWYSIYVYWGQGTQVTVSS	high polyreactivity
QVQLVESGGGLVQAGGSLRLSCAASGGMGWYRQAPGKERELVATISSVGSTNYADSVKGRFTISRDNAKNTVYLQMNSLKPEDTAVYYCNANGVQYFLYGYWGQGTQVTVSS	low polyreactivity
QVQLVESGGGLVQAGGSLRLSCAASGGNFGYYAMGWYRQAPGKEREFVAAITLSGGRTYYADSVKGRFTISRDNAKNTVYLQMNSLKPEDTAVYYCAAKGTRRGKERNYWGQGTQVTVSS	high polyreactivity
QVQLVESGGGLVQAGGSLRLSCAASGGNFVSYAMGWYRQAPGKERDLVARINSVDGTNYADSVKGRFTISRDNAKNTVYLQMNSLKPEDTAVYYCATGGYYSAIVYGGYDYWGQGTQVTVSS	low polyreactivity
QVQLVESGGGLVQAGGSLRLSCAASGGSFPDNARGWYRQAPGKERELVAAISFSGSSTYADSVKGRFTISRDNAKKTVNLQMNSLKPEDTAVYYCNTDGYIYRYRFDYWGQGTQVTVSS	low polyreactivity
QVQLVESGGGLVQAGGSLRLSCAASGGTFFSYAMGWYRQAPGKERELVAAISRGGDTTYADSVKGRFTISRDNAKNTVYLQMNSLKPEDTAVYYCAARVPPLLTDSPVFPYDYWGQGTQVTVSS	low polyreactivity
QVQLVESGGGLVQAGGSLRLSCAASGGTFFVYAMGWSRPAPGKERELVAAISGSGGRTYYADSVKGRFTISRDNAKNTVYLQMNSLTPEDTAVYYCNATYLTRSTRLSDFDYWGQGTQVTVSS	high polyreactivity
QVQLVESGGGLVQAGGSLRLSCAASGGTFGAYAMGWYRQAPGKERELVAAISGSGARTYYADSVKGRFTISRDNAKNTVYVQMNSLKPEDTAVYYCAARSTGTRVGEYDYWGQGTQVTVSS	high polyreactivity
QVQLVESGGGLVQAGGSLRLSCAASGGTFGLNAMGWYRQAPGKERELVAAITVTGGSDTYYADSVKGRFTISRDNAKNTVYLQMNSLKPEDTAVYYCAADIGKLYDYWGQGTQVTVSS	low polyreactivity
QVQLVESGGGLVQAGGSLRLSCAASGGTFGPYAMGWYRQAPGKERELVATIRSSGGRTYYADSVKGRFTISRDNAKNTVYFQMNSLKPEDTAVYYCAATEFRYFEGGAYFEGYYWGQGTQVTVSS	low polyreactivity
QVQLVESGGGLVQAGGSLRLSCAASGGTFGPYAMGWYSQAPGKERELVATIRSSGGRTYYADSVTGRFTISRDNAKNTVYFQMNSLKPEDTAVYYCAADNLRQFGEYDYWGQGTQVTVSS	low polyreactivity
QVQLVESGGGLVQAGGSLRLSCAASGGTFGRYTMGWYRQAPGKERELVATITIGGGTNYADSVKGRFTISRDNAKNTVYLQMNSLKPEDTAVYYCARAWRWRCRYYEYGYWGQGTQVTVSS	high polyreactivity
QVQLVESGGGLVQAGGSLRLSCAASGGTFGSNAMGWYRPAPGKERELVAAISTTGGTTYYADSVKGRFTISRDNAKNTVYLQMNSLKPEDPAVYYCAKDGYVYGDWYTYAYDYWGQGTQVTVSS	low polyreactivity
QVQLVESGGGLVQAGGSLRLSCAASGGTFGVNTMGWYSHAPGKERELVAAISNRGVSTYYADSVKGRFTISRDNAKNTVYLQMNSQKPEDTAVYYCASTNSYVYSITLDRYDYWGQGTQVTVSS	low polyreactivity
QVQLVESGGGLVQAGGSLRLSCAASGGTFGVYYAMGRYRQAPGKERELVADISWSAGSTYYADSVKGRFTISRDNAKNTVYLQMNSLKPEDTAVYYCAARYAVYWPWYVREYDYWGQGTQVTVSS	low polyreactivity
QVQLVESGGGLVQAGGSLRLSCAASGGTFGYNVMGWYRQAPGKERELVAAISYSVGGTYYADSVKGRFTISRDNAKNTVYLQMNSLKPEDTEVYYCAATGRRRTYSEYEYWGQGTQVTVSS	high polyreactivity
QVQLVESGGGLVQAGGSLRLSCAASGGTFHKYDMGWYRQAPGKERELVAYADSVKGRFTISRDNAKNTVYLQMNSLKPEDTAVYYCNADWQSYGYLCHSSLYYYWGQGTQVTVSS	low polyreactivity
QVQLVESGGGLVQAGGSLRLSCAASGGTFHRNAMGWYRQAPGKERELVAAITSSGGSTNYADSVKGRFTISRDNAKYTVYLQMNSLKPEETAVYYCATDRYRYTSHPWSRGFDYLGQGTQVTVSS	low polyreactivity
QVQLVESGGGLVQAGGSLRLSCAASGGTFHSNAMGWYRQAPGKERELVASINWSGGSTYYADSVKGRFTISRDNAKNTDYLQMNSLKPEDTAVYYCAARESYPGYGYDHWGQGTQVTVSS	low polyreactivity
QVQLVESGGGLVQAGGSLRLSCAASGGTFHYNAMGWSRQAPGKERELVAAITESGGRTYYADSVKGRFTISRDNAKNTVYLQMNSLKPEDTAVYYCNADQDYDAAYRSDYWGQGTQVTVSS	low polyreactivity
QVQLVESGGGLVQAGGSLRLSCAASGGTFKFYAMGWYRQAPGKERELVAAISWSGTSTYYADSVKGRFTISRDNAKNTVYLQMNSLKPEDTAVYYCAADKRLRGHGYDYWGQGTQVTVSS	high polyreactivity

Sequence	polyreactivity (PSR sort gate)
QVQLVESGGGLVQAGGSLRLSCAASGGTFKLYAMGWYRQAPGKERELVAAISRRGGSTYYADSVKVRFTISRDNAKNTVYLQMNSLKPEDTAVYYCAAPGPTQSTQRGGYWGQGTQVTVSS	high polyreactivity
QVQLVESGGGLVQAGGSLRLSCAASGGTFKRNAMGWYRQAPGKERELVAAISTSGATTYYADSVKGRFTISRDNAKNTVYLQMNSLKPEDTAVYYCNAVGDARYNYWGQGTQVTVSS	high polyreactivity
QVQLVESGGGLVQAGGSLRLSCAASGGTFKSAYVMGWYRQAPGKERELVAAIDSTGSTNYADSVKGRFTISRDNAKNTVYLQMNSLKPEDTAVYYCNADRRELYYDPMDYWGQGTQVTVSS	low polyreactivity
QVQLVESGGGLVQAGGSLRLSCAASGGTFLINAMGWYRQAPGKERELVATITSGGTTYYADSVKGRFTISRDNAKNTVYLQMNSLKPEDTAVYYCATRGKGRYGYDSWGQGTQVTVSS	low polyreactivity
QVQLVESGGGLVQAGGSLRLSCAASGGTFPAYTMGWYRQAPGKERELVAAITWSGGNTYYADSVKGRFTISRDNAKNTVYLQMNSLKPQDTAVYYCAAEYWQYQWSVRIDYEYWGQGTQVTVSS	high polyreactivity
QVQLVESGGGLVQAGGSLRLSCAASGGTFPQNVMGWYRPAPGKERELVAAISSGGSTYYADSVKVRFTISRDNAKNTVYFQMNSLIPEDTGVYYCAKRRWYRYDYWGQGTQVTVSS	high polyreactivity
QVQLVESGGGLVQAGGSLRLSCAASGGTFPVYALGWYRQAPGKERELVAAISYSGVTTYYADSVKGRFTISRDNAKNTVYLQMNSLKPEDTAVYYCNADWRRWYIFSYDYWGQGTQVTVSS	low polyreactivity
QVQLVESGGGLVQAGGSLRLSCAASGGTFPWYTMGWYRQAPGKERELVAAISVSGDSTHYADSVKGRFTISRDNAKNTVYLQMNSLKPEDTAVYYCAATYLVSSDKYDYWGQGTQVTVSS	high polyreactivity
QVQLVESGGGLVQAGGSLRLSCAASGGTFPYNAMGWYRQAAGKERELVAAISSSGTSTYYADSVKRRFTISRDNAKNTVYLQMNSLKPEDTAVYYCNDYFKRYDYWGQGTQVTVSS	high polyreactivity
QVQLVESGGGLVQAGGSLRLSCAASGGTFPYNAMGWYRQAPGKERELVAAISSSGTSTYYADSVKGRFTISRDNAKNTVYLQMNSLKPEDTAVYYCNDYFKRYDYWGQGTQVTVSS	high polyreactivity
QVQLVESGGGLVQAGGSLRLSCAASGGTFPYYAMGWYRQAPGKERELVAAISSSGGRTYYADSVKGRFTISRDNAKNTVYLQMNSLKPEDTAVYYCAKDTYGFAANRPAGDGYWGQGTQVTVSS	high polyreactivity
QVQLVESGGGLVQAGGSLRLSCAASGGTFPYYAMGWYRQAPGKERELVADISGTDGSTYYADSVKGRFTISRDNAKTTVYLQMNSLKPEDTAVYYCNADPHWWYWDYDYWGQGTQVTVSS	high polyreactivity
QVQLVESGGGLVQAGGSLRLSCAASGGTFQGNAMGWYRQAPGKEREFVATITRGGGSTYYADSVKGRFTISRDNAKNTVYLQMNSLKPEDTAVYYCNAKPSYYQRYNYWGQGTQVTVSS	high polyreactivity
QVQLVESGGGLVQAGGSLRLSCAASGGTFQQNAMGWSRQAPGKERELVAAISWSDGSTYYADSVKGRFTISRDYATNTVYLQMNSLTPEDTAVYYCAADFTYYDSPYRDYNYESWGQGTQVTVSS	low polyreactivity
QVQLVESGGGLVQAGGSLRLSCAASGGTFQSNGMGWYIQAPGKERELVATITGSGGDTSYAGSVKGRFTISRDNAKNTVYLQMNSLKPEDTAVYYCAAADADRKYDYWGQGTQVTVSS	low polyreactivity
QVQLVESGGGLVQAGGSLRLSCAASGGTFRLYAMGWYRQAPGKERELVAAISGRGGSTYYADSVKGRFTISRDNAKNTVYLQMNSLKPEDTAVYYCARYRRGKMDYWGQGTQVTVSS	high polyreactivity
QVQLVESGGGLVQAGGSLRLSCAASGGTFRLYTMGWYRQAPGKERELVAGISSSSGSTYYADSVKGRFTISRDNAKNTVYLQMNILKPEDTAVYYCAAYWPRSRYDYWGQGTQVTVSS	high polyreactivity
QVQLVESGGGLVQAGGSLRLSCAASGGTFRNYAMGWYRQAPGKERELVAAITTGTITNYADSVKGRFTISRDNAKNTVYLQMNSLKPEDTAVYYCNAGAFYSDPYDYWGQGTQLTVSS	low polyreactivity
QVQLVESGGGLVQAGGSLRLSCAASGGTFRNYPMGWYRQAPGKERELVAAITTGTITNYADSVKGRFTISRDNAKNTVYLQMNSLKPEDTAVYYCNAGAFYSDPYDYWGQGTQVTVSS	low polyreactivity
QVQLVESGGGLVQAGGSLRLSCAASGGTFRPYAIGWYRQAPGKERELVATIRSSGGRTYYADSVKGRFTISRDNAKNTVYLQMNSLKPEDTAVYYCAKRAQTYYGYVYWGQGTQVTVSS	high polyreactivity
QVQLVESGGGLVQAGGSLRLSCAASGGTFRRYTMGWYTQAPGKVRELVAAITTSGGSTYYADSVKGRFTISRDNAKNTVYLQMNSLKPEDTAVYYCAATRRYSGDYWGQGTQVTVSS	high polyreactivity
